Source: the domain aggregation screens of Martell et al. (2025)

Assay: soluble fraction after stress (log2 fold change); higher = more stays soluble; pooled small domains, quantitative proteomics
Settings: stress: pH 4
How it was run: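 Custom libraries of small protein domains were pooled and measured with high-throughput quantitative proteomics after pH 4 stress. The read-out is the fold change in the amount of each domain that stays soluble after the acid stress, taken as a measure of aggregation propensity. Fold changes are on a log2 scale, and higher values mean more of the domain stayed soluble.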

HMIEKVNDYVVRFANVNGTGSASANNLFALAIYRMGVPVTPKNIFPSNIQGLPTWFEVRVSGSGYLARRG
soluble fraction (log2): 0.129

HMAQLVVTVDKLNKRTAIPVTLSDKSSNDSVVEKGFRFEGFPFVNTATNGKKWYKDREGFFYWAGGLMEEA
soluble fraction (log2): -0.0297

HMAADWTAIKLAYVNGGMSMRELAQRFHVGAAGLMKRAAKEGWEAERQQNSAKVSNAAQMLIN
soluble fraction (log2): 0.125

HMKIELSDNEKIIYDLLSSQHVLLSEIKDKAGLSNKAWDKSTKSLRKLGLIAVEKKDDDIYISKL
soluble fraction (log2): 0.247

HMSEEVDVPDLVGMQLEEAEKSLEPLGLKLKIAKEIPNSEFEKGKIVDQKTKAGEKVKTGYTIEVTVSSG
soluble fraction (log2): -0.0107

HMTGIQLNDRERAILQHLSDGLTTKAIAERIFLREDTVKWYRKNLLARFEQPIVAALVKWAVLEGLV
soluble fraction (log2): 0.409

HMLDNHPQSKKIRALWLEMAAAGVVRDSSEQALALWVKRETGISALRWLSNEQASSVIEKLKKWQRRAAG
soluble fraction (log2): -0.0161

HMGDADDLSRELLQQGLSLKEAVADFERRYLQQAMQRHSSIASVSEALDVHFSTLWRKLVKYNLV
soluble fraction (log2): -0.621

HMLQIADEYLDRLQALFEDVRDNHFAIGDLLVELVDMHDSRRVDVINYIAGRLAISPTTLYDYENTARR
soluble fraction (log2): -0.966

HMNKDEFLNELKSYLSILEDEEQADILEEYTQHIDMKISTGLSEAEAIRDFGNVSELAAQILEAY
soluble fraction (log2): -0.343

HMSNLGLQIVRTLTDAGKGVVFITHKLKEALTIADRINVLRRGKVVGDADPKTASESQIAEMMVGRPVQL
soluble fraction (log2): 0.0653

HMNVAVSEADAKAAALERVSGATEADIRMELELDDGYYVYEGDIIYQQKEYEFEIDAQTGKFLKWSEER
soluble fraction (log2): 0.0965

HMDFRVGVWVELVQQRRSVRTQLTWVSPQHTLFLFTAKDGSTQSMTLRMRDKLLAEGNLRIVAPPSR
soluble fraction (log2): 0.22

HMEDELFSVARAAFPEYASKIHMNYGSTVQSIARQSGVLTVSETKQLNENQQISYLEYSNGAVVLALA
soluble fraction (log2): -0.306

HMELADLPSAQIREILAYVYRAPLEKRRDPSIHWLLIAAHKLTLPLLDRLDPADARALGERYGADYP
soluble fraction (log2): -0.644

HMRKSLGEIVFDRMERAIKSGAYSPDERLPTELDLAAEFEVSRPVIRDALKRLRERGLIYSRQGAGSFVRA
soluble fraction (log2): -0.25

HMTVKEVGYDTFLTMLDKKEIKQVQVEDNQIIFSDNADPVNYYKTGVFNDPDLVNRLQDAGVEFG
soluble fraction (log2): -0.37

HMLMSDEENAEFTKLYRQLVFKLHPDLNPNQTKDEENLWHKVQMAYKGGDLEEMRSLAIILDAQ
soluble fraction (log2): -0.547

HMDSGINVWASAEGLTITADKDTTVYVYDIYGRTIHTSEVKAGTSDIAINTKGIVIVKANGYTKKII
soluble fraction (log2): -0.76

HMVDISLSDRELEVLRLLAMGLSNADISRRLYLSEGTIRNYMSGIFSKLNVSDRTQAVVIALREGLVNL
soluble fraction (log2): -0.976

HMATTIEAPMPGKILDVKVNPGQAVSYGQVVLTMEAMKMETEIVAPADGTVASVLVKSGDMVETGAALVSL
soluble fraction (log2): -0.268

HMTLSENEKIIVDTIMKYQPLHIDVLNQQVKVDFYTLLGLLTKLEMEGIVLKNPGNIYKINTL
soluble fraction (log2): -0.865

HMLMNADVLVKYQEDHWIVISEKASQASDTFDKKEQAVERAKEIAKNKNSSVKVYKQDGTLQDTFDYS
soluble fraction (log2): 0.306

HMPVQPMDPSIEHISALTGKQFQAFPGQDHRAHMTAHLNFMSTNIVRNNPAVMGAIQKNILEHISLMAQEQ
soluble fraction (log2): -0.0918

HMTLPQEPTVLPRPLRVGDTVHIRTLDKDAEVLALPDARGMVAVRAGIINTKVKLTDLTLVEEK
soluble fraction (log2): ≥ 0.43

HMANKTVPNVSGKTVAEARAIIENQSLQVGEEKEEYSDSVAEGYIIRTNPTAGSQKKEQSKIDLVVSKG
soluble fraction (log2): -0.211

HMGSEISYSEFLNRVEQGQVAAVRLDGEQIFITGPTGEAYQTIQPRNTDVLPDLREAGVEIQAAPQ
soluble fraction (log2): -0.675

HMADFIKEIKTNNPRQLLKSILSSFMPRALILELEMLLWNDLKSKPIGEWSNTQIENVGKLLNNWILKPAA
soluble fraction (log2): 0.164

HMKRRSVIVSVVRAQVRQSADEAAAVVFEAEKNVSLDYLETMPGGWVKVRHRDGQTGFVRVNQIWG
soluble fraction (log2): -0.79

HMHSPTFYVHVVGQVKVPGVYELEVGSRLFDAVIAAGGFKDDADQASVNLARPLSDGEQIVVLKLGDQ
soluble fraction (log2): -0.732

HMDSDMGQQLKTLLTVGTFMSSKELKAIAQQLGLKKPTDLKEWVELESGTQRIEGKPTKGYWIKMNDINN
soluble fraction (log2): -0.288

HMVDDNFGLGEVTDQNYLTVLGRALDLIGWTDEQADSYSLKTFGVPHWDELGRSQAEKLVAHLIGLLKEQM
soluble fraction (log2): -0.157

HMDPSKMKIDELEIATRTATALADGGIKSVAGLIRKSASALKELDGVGDKAIAEITEALEKLGLELKG
soluble fraction (log2): -0.157

HMIKDSKAAYKILGVDENATNEEIKKAYRQLVINHHPDKVSHLGEDIQRAANEKLKQINAAYDEIKKQRGF
soluble fraction (log2): 0.171

HMDTRSSARKALDAVNLLLETYGAKAYQHSYEIAGRRQQFQTPGDFMAFRSRLMAEVATEENAARINA
soluble fraction (log2): ≥ 0.43

HMRPLISQTLRIDRGEGDIAGPLGVLAKEYPHLSMGSYPFQKDGIYGAHVVIRGSDPGMVEAAMDKLKAAF
soluble fraction (log2): -0.0188

HMDAVSTMIENLRVKTGKSLADWVGLAKGSGADKHGAMVGWLKSEHGLTHGYANLIAHETFRSAA
soluble fraction (log2): 0.0144

HMGSALLEAGADDAGQRLDQWLAAKLGPSISRSRVQALIKQGAVLVGGKPAGEAKRKLVAGDVVSVALPEP
soluble fraction (log2): 0.133

HMGIAKYRQVTEWIQNRIATGELNRGDQIESENDISRTFGISRQTVRHALGLLEQQGILTRIQGRGTFVRD
soluble fraction (log2): 0.309

HMFEQRLRQAMKELRLKQVQVAGLTGKSRGAISQYLSGDRVPPDGVQREMAIALGLEADYFSR
soluble fraction (log2): 0.343

HMFIEMDEPEKILHRILNEANGKLELDKIGYRAEWPIGKVLTVLMSLELKGVVQSHPGKVYSL
soluble fraction (log2): -0.464

HMKRTRLEEAMDWLREQLNDGPVAYATLKDEAPKAEITLSTLRAAGEALRVDKQKKGVQWGGWTWSLPR
soluble fraction (log2): 0.404

HMGDAPLITVDKRTIKVNGAKAQIQVYDTTGRLVKNVSPAGKLTLIEMAKPGIFIVHTQSMSFKVVL
soluble fraction (log2): 0.00664

HMTKYEKKIFEIVNASRDHLTAEQVLAALREEYPAVSQATVYNNLKKLTSDGLLRKLTLADSPDRYD
soluble fraction (log2): 0.211

HMSKDQKKFFIEIVSIRGFGSQIGISILNKLSIPQIINAIKTQNKKEISSIPGIGQKMTERLILELNNKFK
soluble fraction (log2): -0.691

HMPMTDYQLIRSNRRTIALQITRDARVVVRAPLYASEADIRRFVESHRAWIESHLDRQRARTD
soluble fraction (log2): 0.201

HMSGMNSDHRVNGNIHTFLIQHDLGTKWSVFTEQLLKQVFRSFLPDKELNFQTTDSTVILKVSLGSDFNEH
soluble fraction (log2): -0.19

HMSEHKFIVPEEFNLKRLDQTVAAQFEKISRTKISKIIKSSLLKVNDKVVTDQSIKIKQDDVITFTEIKDQ
soluble fraction (log2): 0.237

HMLTWNQLGLITKPVVFLDGTGYYARLFEAFEHMISTGFVKENYRAMMNRATSVEEAVRIASSPAPKVD
soluble fraction (log2): -0.187

HMSLAATLSPREIDTVRLIAVGSSNKEIARQLGIAETTVKIHVQHILRKLNLTSRVQVAVFANAEGII
soluble fraction (log2): -0.407

HMVVVPDVKGLKIEEAAEFFKNNNLHYNVIDSVFSKDVEPGAIVELSPLAGSKVKEGRIVFITVNALTS
soluble fraction (log2): -0.681

HMQDPTAVISRVLEERKHQPGALLPILHGIQDALGYVPREAVAQIAQALNLSRAEIHGVVSFYHHFR
soluble fraction (log2): -0.311

HMYELDIYPNPAIDKINVLLPSSTTLPVKVEIYDIMGKKVNSLLTTKKAFTIETDQFEKGIYFVKA
soluble fraction (log2): 0.187

HMVMETLAERINTALQTKGLSVNALARRVGVSYPAMRKITKGETLNPKFLFEIAEALGVSVEWLKTGEGSP
soluble fraction (log2): 0.0978

HMQNNWFYEENGQRKGPVSENEMVQFIKSSVISHGTSVWKQGFPDWLKVENTDLRVHLDNSAP
soluble fraction (log2): -0.611

HMSAAPVGPWALSEFLDAVEKDSVERVTFDDAGKALVAVDADGGRHRVEILPSEGPEILAALRKHSVQFA
soluble fraction (log2): -0.346

HMGKASNEVYEVISSKIRTGEWAPGYKLPSEPTLAEEFGVSRATVREALQELISRGRIKREQGRGTYVLH
soluble fraction (log2): -0.118

HMEVFGDTKEEQMIIDILKLGITDLEHLQAKSMLEPAIFSQTLTMLEISGKIRPLGAGHWTL
soluble fraction (log2): -1.49

HMGSLVQTAMQAVTKHIHDNAMRVGDTLPGEGHFAETLGVSRAVMREAFGALAALKLIDVGNGRKPRVGR
soluble fraction (log2): 0.091

HMNFEIEVTENGKRIDSYLAEELDLSRSKVQKLIKQELVTVNGKVVSNNYNVKLGDTILVNDD
soluble fraction (log2): 0.154

HMIQLKEHDVVRLRETIVENDEKIPAGTRGVVLSVYDGGRAFAVEVADDRAASAIITAFRDQLEVY
soluble fraction (log2): -0.0481

HMRQLISIYNNTIGADEIDQMRNILSNSGYKEGVDFAVQTADKKSVILVRRDLAGMIQEQLSGEGLPS
soluble fraction (log2): -0.18

HMYLPLREVVFNALRTAIIHGEFKPGERLMEMHLAKSLGVSRTPVREAMRMLELEGLVVMIPKKGAEVAR
soluble fraction (log2): -0.408

HMRPPLRAAIIDHLARDWHTVAELARLLPASGAHVSRLVVELRAVGAVDERISHPDWPGNRPTEYRLRRA
soluble fraction (log2): -1.05

HMGNEMQVPNVAGKTVDEAIEIFNNMGLKVAAENKYAQSDDVKEGDVVKTDPSSGRNVKKGSEITLYISQG
soluble fraction (log2): 0.291

HMKIRKAVIPAAGLGTRVLPASKSIPKEMLPIVDKPVIQYIVEEAVKAGITEILIITGRGKGAIEDHFDRS
soluble fraction (log2): 0.0275

HMDPEEQIQSREIWEAVERALDGMQEKGRRVVIALLEGQTQLEVSRAAGISQPLISYYLKSFRTKVRTELG
soluble fraction (log2): -0.269

HMNPAYTDSRMKTFLEELPVMKASLSQKHVTRFLVWQEYIGRHPDGYGKSQFFYHLKQNLVAAKG
soluble fraction (log2): 0.0452

HMSGSKEQQIVILNNILERQLQAFGLQGNREFPMVTLKNIYNSLSKIIENAGLKNVENYFVNPEQGKQM
soluble fraction (log2): -0.394

HMGRKPVSPEIVERVLQLAKSNPDWGYEHIAGTMRYLGYNVSATTIRHILEANGIVPDPERRL
soluble fraction (log2): -0.543

HMRLSDSEFESIENAIKEKLENSALTADVLVKELSFDEDKIWKVIRWLEDAEKISEDEAGTLLWKPR
soluble fraction (log2): -0.76

HMRYWVKSETDFLIENRGKYSYQEFADMLGRSYAVVYDKMHQLKIDYTKEELEIFDEKHKAQMREKQQR
soluble fraction (log2): -0.665

HMGGPTARQMEVLSLIAQGLPNKRIADELGIAERTVKLHITALLDSLGARNRTHLLVVARERGM
soluble fraction (log2): -0.608

HMSVLNLQTDIPKKYTDVLGTSVKGRLNTLVHNVIINSVDRPVIQMSEEVHEAMQGLRIFMFENVYRNPV
soluble fraction (log2): 0.22

HMEDKIEESLEDNISELFAKTKDKYTLINDLYSKGYTVEELSRFSGLPSGEVRLVISLNSKN
soluble fraction (log2): -0.183
